In PMC7391724 (Scientific Reports, 2020):
Read-outs that look alike come from different tables or passages of the source.

What was measured:
KB tumor xenografts = assay: KB tumor xenograft in nu/nu mice; assay type: in vivo; conditions: EC2629 0.3 µmol/kg iv SIW x 2 weeks
Procedure: Four- to eight-week-old female nu/nu mice and rats (Harlan Sprague Dawley, Inc.), were maintained on a standard 12-h light–dark cycle and fed ad libitum with a low-folate chow (Harlan Teklad diet #TD.01013, Madison, WI) for the duration of dosing and 1 week post dosing schedule. Mice and rats were then switched to Teklad Global 18% Rodent diet (Harlan Teklad diet #2018S) during the monitoring phase of the study. Parental KB, KB-CR2000 or KB-PR10 cells (1 × 10^6/100 µL per nu/nu mouse and 5 × 10^6/200 µL per nu/nu rat) were injected into the subcutis of the dorsal medial area. Mice were divided into groups of 5 and rats in groups of 3–4, and freshly prepared test articles were injected through the lateral tail vein under sterile conditions in a volume of 200 μL/20 g of PBS. In mice, intravenous treatments typically initiated on day 7 PTI when KB tumors were approximately 111–168 mm^3 in volume, on day 5 PTI when the KB-PR tumors were about 205–243 mm^3, and on day 6 PTI when the KB-CR tumors were around 98 to 168 mm^3. Treatments in rats were started on day 10 PTI when KB tumors were approximately 412–704 mm^3 in volume.
Animals in the control groups received no treatment. Growth of each subcutaneous tumor was followed by measuring the tumor 3 times per week during treatment and twice per week thereafter, until a maximum volume of 1,500 mm^3 for mice and 15,000 mm^3 for rats were reached. Tumors were measured in two perpendicular directions using Vernier calipers, and their volumes were calculated as V = 0.5 × L × W^2, where L = measurement of longest axis in mm and W = measurement of axis perpendicular to L in mm[16]. As a general measure of gross toxicity, changes in body weights were determined on the same schedule as tumor volume measurements. Survival of animals was monitored daily. Animals that were moribund (or unable to reach food or water) were euthanized by CO2 asphyxiation. Individual tumor response endpoints were reported in terms of tumor volume change. A partial response (PR) was defined as volume regression > 50% but with measurable tumor (> 2 mm^3) remaining at all times. Complete response (CR) was defined as a disappearance of measurable tumor mass (< 2 mm^3) at some point within 90 days after tumor implantation. Cures were defined as CRs without tumor regrowth within the 90-day study time frame.

[1] = Plasma pharmacokinetics after intravenous EC2629 in rats; assay type: in vivo; conditions: rat
Procedure: The plasma pharmacokinetics of EC2629 and metabolite EC2491 were evaluated following intravenous administration of EC2629 to male and female rats. The toxicokinetic phase of the study consisted of 5 groups with three animals/gender assigned to the control group, and nine animals/gender assigned to each of the treatment groups. […] Blood samples were collected from Group 0 at 10 min post-dose, and from Groups 1–4 at pre-dose, 2, 10, and 30 min and 1, 2, 8, 12, and 24 h post-dose. Plasma was prepared and analyzed for concentrations of EC2629 and metabolite EC2491. Mean plasma EC2629 and EC2491 concentration–time data for males and females, separately, of Groups 1–4 and were subjected to noncompartmental toxicokinetic evaluations and the results are summarized in Table S3.

[2] = Plasma protein binding (ultrafiltration), mouse; assay type: in vitro ADME; conditions: 37 °C
Procedure: Plasma ultrafiltration was used for determination of free and protein bound fractions of EC2629 and EC2491. Samples were extracted and analyzed using fit-for-purpose bioanalytical methods. Briefly, 500 nM EC2629 or EC2491 was spiked into plasma maintained at 37 °C prior to plasma ultrafiltration. Plasma spiked with 500 nM EC2629 or EC2491 was allowed to equilibrate at 37 °C for 30 min prior to processing. Next, 50 μL of plasma was transferred to a clean 1.2 mL plate stored at 2–8 °C for further processing. The remaining plasma sample volumes were transferred to 30 Kd MWCO PES filter to generate plasma ultrafiltrate by centrifugation at 10,000×g for 20 min. After which, 50 μL of each plasma ultrafiltrate was transferred to separate wells in a clean 1.2 mL plate. To all spiked plasma samples, 50 μL of blank plasma ultrafiltrate was added. 50 μL of blank plasma was added to all experimental ultrafiltrate samples. These blank matrix additions normalized the matrix effects for protein binding determination. Samples were then extracted using protein precipitation with a 3:1 ratio of acetonitrile after addition of internal standard. The supernatant transferred to a new plate, evaporated, and reconstituted prior to LC–MS/MS analysis.

[3] = 0.1 mg/kg, 0.10 mg/kg iv, female, Group 2
[4] = 0.1 mg/kg, 0.10 mg/kg iv, male, Group 2
[5] = 0.5 mg/kg, 0.50 mg/kg iv, female, Group 4
[6] = 0.5 mg/kg, 0.50 mg/kg iv, male, Group 4

SMILES: C=C1C[C@H]2C=Nc3cc(OCCCCCOc4cc(N)c(C(=O)N5CC(=C)C[C@H]5C5OCCN5C(=O)OCC(C)(C)SSCCC(=O)NCCNC(=O)CCOCCOCCOCCOCCNC(=O)CCN5C(=O)CC(SC[C@H](NC(=O)[C@H](CC(=O)O)NC(=O)[C@H](CC(=O)O)NC(=O)[C@H](CCCNC(=N)N)NC(=O)[C@H](CC(=O)O)NC(=O)CC[C@H](NC(=O)c6ccc(NCc7cnc8nc(N)[nH]c(=O)c8n7)cc6)C(=O)O)C(=O)O)C5=O)cc4OC)c(OC)cc3C(=O)N2C1 (some centres unmarked) [EC2629]
- body weight change (KB tumor xenografts): did not lose any significant weight
- clearance ([1]; both sexes, across 0.05-0.50 mg/kg iv dose groups, males and females, read-out: Clearance (Cl), range): 1.51 to 2.9 mL/min/kg
- Vd ([1]; both sexes, across 0.05-0.50 mg/kg iv dose groups, males and females, read-out: volume of distribution (Vz), range): 0.109 to 0.191 L/kg
- AUC(0-inf) ([1]; 0.05 mg/kg iv, female, Group 1): 287 ng·h/mL
- AUC(0-t) ([1]; 0.05 mg/kg iv, female, Group 1): 260 ng·h/mL
- C0 ([1]; 0.05 mg/kg iv, female, Group 1): 662 ng/mL
- Cmax ([1]; 0.05 mg/kg iv, female, Group 1): 545 ng/mL
- Tmax ([1]; 0.05 mg/kg iv, female, Group 1): 1.98 min
- half-life ([1]; 0.05 mg/kg iv, female, Group 1): 37.6 min
- clearance ([1]; 0.05 mg/kg iv, female, Group 1, read-out: Cl (converted)): 2.9 mL/min/kg
- Vd ([1]; 0.05 mg/kg iv, female, Group 1, read-out: Vz): 0.157 L/kg
- AUC(0-inf) ([1]; 0.05 mg/kg iv, male, Group 1): 384 ng·h/mL
- AUC(0-t) ([1]; 0.05 mg/kg iv, male, Group 1): 305 ng·h/mL
- C0 ([1]; 0.05 mg/kg iv, male, Group 1): 669 ng/mL
- Cmax ([1]; 0.05 mg/kg iv, male, Group 1): 595 ng/mL
- Tmax ([1]; 0.05 mg/kg iv, male, Group 1): 1.98 min
- half-life ([1]; 0.05 mg/kg iv, male, Group 1): 61.2 min
- clearance ([1]; 0.05 mg/kg iv, male, Group 1, read-out: Cl (converted)): 2.17 mL/min/kg
- Vd ([1]; 0.05 mg/kg iv, male, Group 1, read-out: Vz): 0.191 L/kg
- AUC(0-inf) [1, 3]: 633 ng·h/mL
- AUC(0-t) [1, 3]: 596 ng·h/mL
- C0 [1, 3]: 1570 ng/mL
- Cmax [1, 3]: 1330 ng/mL
- Tmax [1, 3]: 1.98 min
- half-life [1, 3]: 31.5 min
- clearance ([1]; 0.1 mg/kg, 0.10 mg/kg iv, female, Group 2, read-out: Cl (converted)): 2.63 mL/min/kg
- Vd ([1]; 0.1 mg/kg, 0.10 mg/kg iv, female, Group 2, read-out: Vz): 0.12 L/kg
- AUC(0-inf) [1, 4]: 699 ng·h/mL
- AUC(0-t) [1, 4]: 617 ng·h/mL
- C0 [1, 4]: 1690 ng/mL
- Cmax [1, 4]: 1390 ng/mL
- Tmax [1, 4]: 1.98 min
- half-life [1, 4]: 42.4 min
- clearance ([1]; 0.1 mg/kg, 0.10 mg/kg iv, male, Group 2, read-out: Cl (converted)): 2.38 mL/min/kg
- Vd ([1]; 0.1 mg/kg, 0.10 mg/kg iv, male, Group 2, read-out: Vz): 0.146 L/kg
- AUC(0-inf) ([1]; 0.25 mg/kg iv, female, Group 3): 1750 ng·h/mL
- AUC(0-t) ([1]; 0.25 mg/kg iv, female, Group 3): 1640 ng·h/mL
- C0 ([1]; 0.25 mg/kg iv, female, Group 3): 3740 ng/mL
- Cmax ([1]; 0.25 mg/kg iv, female, Group 3): 3230 ng/mL
- Tmax ([1]; 0.25 mg/kg iv, female, Group 3): 1.98 min
- half-life ([1]; 0.25 mg/kg iv, female, Group 3): 31.8 min
- clearance ([1]; 0.25 mg/kg iv, female, Group 3, read-out: Cl (converted)): 2.38 mL/min/kg
- Vd ([1]; 0.25 mg/kg iv, female, Group 3, read-out: Vz): 0.109 L/kg
- AUC(0-inf) ([1]; 0.25 mg/kg iv, male, Group 3): 1930 ng·h/mL
- AUC(0-t) ([1]; 0.25 mg/kg iv, male, Group 3): 1670 ng·h/mL
- C0 ([1]; 0.25 mg/kg iv, male, Group 3): 4310 ng/mL
- Cmax ([1]; 0.25 mg/kg iv, male, Group 3): 3580 ng/mL
- Tmax ([1]; 0.25 mg/kg iv, male, Group 3): 1.98 min
- half-life ([1]; 0.25 mg/kg iv, male, Group 3): 46.2 min
- clearance ([1]; 0.25 mg/kg iv, male, Group 3, read-out: Cl (converted)): 2.15 mL/min/kg
- Vd ([1]; 0.25 mg/kg iv, male, Group 3, read-out: Vz): 0.144 L/kg
- AUC(0-inf) [1, 5]: 3540 ng·h/mL
- AUC(0-t) [1, 5]: 3230 ng·h/mL
- C0 [1, 5]: 7060 ng/mL
- Cmax [1, 5]: 6070 ng/mL
- Tmax [1, 5]: 1.98 min
- half-life [1, 5]: 36.7 min
- clearance ([1]; 0.5 mg/kg, 0.50 mg/kg iv, female, Group 4, read-out: Cl (converted)): 2.35 mL/min/kg
- Vd ([1]; 0.5 mg/kg, 0.50 mg/kg iv, female, Group 4, read-out: Vz): 0.125 L/kg
- AUC(0-inf) [1, 6]: 5510 ng·h/mL
- AUC(0-t) [1, 6]: 5450 ng·h/mL
- C0 [1, 6]: 8450 ng/mL
- Cmax [1, 6]: 7080 ng/mL
- Tmax [1, 6]: 1.98 min
- half-life [1, 6]: 84 min
- clearance ([1]; 0.5 mg/kg, 0.50 mg/kg iv, male, Group 4, read-out: Cl (converted)): 1.51 mL/min/kg
- Vd ([1]; 0.5 mg/kg, 0.50 mg/kg iv, male, Group 4, read-out: Vz): 0.183 L/kg
- fraction unbound at 30 min, 500 nM [2]: 0.051
